Residue numbers refer to the chain shown, from its start. Entries after “also recorded” stand apart in the source; their conditions may differ.
B1: 846.2H3: murine anti-Gal3 antibody (antibody, V domains shown)
VH: QIQLVQSGPELKKPGETVKISCKASGYTFTNYGMNWVKQAPGKGLKWMGWINTYTGEPSYADDFKGRFAFSLETSASTAYLQINNLKNEDMATYFCARWGGYDGDYYAMDYWGQGTSVTVSS
VL: NIMMTQSPSSLAVSAGEKVTMSCKSSQSVLYSSNQKNYLAWYQQKPGQSPKLLIYWASTRESGVPDRFTGSGSGTDFTLTISSVQPEDLAVYYCHQYLSSLTFGAGTKLELK
B2: 2D10.2B2: murine anti-Gal3 antibody (antibody, V domains shown)
VH: QVQLQQSGPELVKPGASVKISCKASGYTFTDYYINWVKQRPGQGLEWIGWIYPGSNDTKYNEKFKGKATLTVDTSSSTAYMQLGSLTSEDSAVYFCANYFGCSGWFFDVWGTGTTVTVSS
VL: DIVMTQAAFSNPVTLGTSASISCRSSKSLLHSDGITYLYWYLQRPGQSPQLLIYRMSNLASGVPDRFSGSGSGTDFTLRISRVEAEDVGVYYCAQMIEFPLTFGAGTILELK
B3: 4A11.2B5: murine anti-Gal3 antibody, origin of IMT006-1 and IMT006-5 (antibody, V domains shown)
VH: QVQLQQSGPELVKPGASVKISCKASGYSFTNYYIHWVKQRPGQGLEWIGWIYPGSGNTNYNEKFKGKATLTADTSSSTTNMQLSSLTSEDSAVYYCSTAPGGFDVWGSGTTVTVSS
VL: B2 VL with I97L, I108K
B4: 13A12.2E5: murine anti-Gal3 antibody (antibody, V domains shown)
VH: QIQLVQSGPELKKPGETVKISCKTSGYKFKTYVMSWVKQAPGKALKWMGWINTYSGVPTYADDFKGRFAFSLETSASTAYLEIINLKNEDTATYFCARDGNYGDPMDYWGQGTSVTVSS
VL: DVVMTQTPLTLSVAIGQPASISCKSSQSLLYTNGKTYLNWLLQRPGQSPKRLIYLLSKLDSGVPDRFSASGSGTDFTLKISRVEAEDLGVYYCLQSTHFPLTFGAGTKLEMK
B5: IMT006-1: humanized anti-Gal3 antibody derived from 4A11.2B5 (antibody, V domains shown)
VH: QVQLVQSGAEVKKPGASVKVSCKASGYSFTNYYMHWVRQAPGQGLEWMGWIYPGSGNTNYNEKFQGRVTMTADTSISTAYMELSRLRSDDTAVYYCSTAPGGFDVWGQGTTVTVSS
VL: DIVMTQTPLSLSVTPGQPASISCKSSKSLLHSDGITYLYWYLQKPGQSPQLLIYRMSNLASGVPDRFSGSGSGTDFTLKISRVEAEDVGVYYCAQMLEFPLTFGQGTKLEIK
modifications: VH of IMT006-1; VL of IMT006-1
notes: humanized anti-Gal3 antibody derived from 4A11.2B5
B6: 13G4.2F8: murine anti-Gal3 antibody (antibody, V domains shown)
VH: QVQLQQPGAELVKPGASVKLSCKASGYTFTSYWMHWVKQRPGQGLEWIGMIHPNSGSTDYNEKFKNKATLNVDKSSSTAYIQLSSLTSEDSAVYYCTRWGIYYYARDYWGQGTTLTVSS
VL: DIVMTQSQKFMSTSVGERVSITCKASQNVGTNVAWYQQKAGQSLELLIYGASNRHTGVPDRFTGSGSGTDFTLTITNVQSEDMTNYFCEQYSNFPLTFGAGTKLELK

How the values were obtained:
[1] = test system: mouse unilateral ureteral obstruction (UUO) model of kidney fibrosis; test: Mouse UUO model of kidney fibrosis (Example 32); assay type: in vivo; settings: treated one day before UUO; for KIM-1 levels / serum NGAL levels: vs isotype control; for picosirius red staining of kidney, image quantification: isotype 2.65%
Source text: To further evaluate the ability of GAL3-targeted antibodies with the ability to block TIM3-GAL3 assembly to impact fibrosis, we evaluated the impact of humanized IMT001-4 and IMT006-1 in the mouse unilateral ureteral obstruction (UUO) model of kidney fibrosis. Briefly, 8-week-old C57BL/6J male mice were divided into sham, UUO with HuIgG4−, and UUO with HuIMT001-4, HuIMT006-1, and UUO with metformin-treatment. HuIgG4, HuIMT001-4 and HuIMT006-1 were each administered by intraperitoneal route at 10 mg/kg Q2Dx3 whereas metformin (500 mg/kg/day) was administered to mice dissolved in drinking water. In some settings therapeutic antibodies or metformin was administered 1 day before UUO, whereas in other experiments therapeutic antibodies or metformin was administered 1 day after UUO. After 7 days of UUO surgery, mice were sacrificed, left kidney was harvested and fixed with 4% paraformaldehyde for immunohistochemistry (IHC) and blood was collected in Heparin-EDTA tubes for blood biochemistry analysis. Levels of plasma mouse TIM-1/KIM-1/HAVCR were measured using a commercial ELISA kit (Catalog #MKM100; R&D Systems, Minneapolis, Minn.) according to the protocol provided by the manufacturer. Levels of plasma mouse Lipocalin-2/NGAL were measured using a commercial ELISA kit (Catalog #DY1857; R&D Systems, Minneapolis, Minn.) according to the protocol provided by the manufacturer. 5 um sections of fixed kidney specimens were produced and processed for picosirius red staining as described for liver specimens above.
To evaluate the robustness of TIM3-GAL3 blocking antibodies in reducing kidney fibrosis, the ability of mIMT001 to inhibit fibrosis when administered one day after UUO surgery was evaluated. Following UUO surgery and treatment with isotype or control antibodies, kidney specimens were harvested and stained by IHC for Collagen 1a1 (Col1a1), a marker of kidney fibrosis.

[2] = target: human Gal3-His (Homo sapiens, UniProt P17931); test: Antibody binning by biolayer interferometry (Gator); assay type: binding; settings: antibody competition
Method: To determine whether Gal3-binding antibodies with Gal3-TIM3 blocking activity bind to the same or overlapping regions of the Gal3 molecule, antibody binning assays were performed to assess the ability of antibodies to simultaneously bind Gal3. Amine-reactive probes were loaded onto a Gator biosensor (Probe Life, Palo Alto, Calif.), equilibrated in dH20 for 60 seconds, dipped into 100 μl EDC 0.2M/NHS 0.05M activation buffer for 30 seconds, then dipped into a solution of […] human Gal3-His in 10 mM NaOAc buffer, pH 5 until binding was saturated, and quenched in 1 M ethanolamine pH 8.5 for 300 seconds. Following Gal3-His loading, tips were dipped in 20 μg/mL saturating antibody, then successively dipped into 5 μg/mL competing antibody.

[3] = test system: hGal3 peptide; test: Gal3 peptide library ELISA (Example 25); assay type: binding, human; settings: for Epitope Mapping: hGal3 peptide No. bound; for Gal3 peptide bound: peptide array ELISA
Method: To identify the epitopes to which Gal3 antibodies with and without Gal3-TIM3 blocking activity bound, a library of 20 amino acid peptides representing portions of Gal3, summarized in Table 24.1, was produced and the ability to bind Gal3 antibodies was evaluated by ELISA.
At least 2 μg/ml of hGal3 peptide in 50 μl of PBS or 0.1 μg/ml of full-length human Gal3 protein (GenScript) and human Galectin-3 protein (Acro Biosystems, GA3-H5129) were diluted in PBS (Corning, 21-030-CM) to concentrations of at least 2 μg/ml or 0.1 μg/ml, respectively, and added to the wells of a 96-well ELISA plate (Thermo Fisher, 44-2404-21). After incubating the plate at 4° C. overnight, the plate was washed three times with PBST (PBS with 0.05% Tween 20 [VWR, 0777]). The plate was then blocked for an hour with 2% BSA (EMD Millipore, 126609) in PBST at room temperature with gentle rocking. Thereafter, the 2% BSA in PBST was discarded and human Galectin-3 hybridoma supernatants or antibodies were diluted in 2% BSA in PBST to concentrations of at least 0.1 μg/ml and added to the wells. The plate was incubated for an hour at room temperature with gentle rocking and then washed three times with PBST. Afterwards, Goat Anti-Mouse IgG-HRP (Jackson ImmunoResearch, 115-036-1461) or Goat Anti-Rat IgG HRP (abcam, ab205720) diluted in 2% BSA in PBST (1:4000) were added to the wells. The plate was incubated for 30 minutes to 1 hour at room temperature with gentle rocking and then washed three times with PB ST. TMB substrate (Thermo Scientific, 34029) was then added to each well. The reaction was stopped with 1M HCl (JT Baker, 5620-02) and read using a plate reader (Molecular Devices) at absorbance of 450 nm.

[4] = target: Galectin-3 (Homo sapiens, UniProt P17931); test: SPR (BiacoreT200) binding affinity; settings: 25° C., read-out: hGal-3 KD
Method: GAL3-binding antibodies were evaluated for their binding affinity by SPR. Kinetics experiments were performed on BiacoreT200 at 25° C. in high performance mode. Ligand proteins, purified antibodies were captured onto a CM5 chip coupled with anti-human Fc or anti-mouse Fc antibody, three antibodies at a time onto flow cell #2, 3, and 4, respectively, while flow cell #1 was used as reference. The analyte Galectin-3 in HBS-EP buffer was injected over all four flow cells at concentrations of 100, 50, 25, 12.5, 6.25, 3.125 and 0 nM at a flow rate of 30 μL/min. The complex was allowed to associate and dissociate for 240 and 300 seconds, respectively. The surfaces were regenerated with a 30 second injection of 10 mM Glycine pH 1.7 (flow rate 30 μL/min). The data were fit to a simple 1:1 interaction model using the global data analysis option available within BiacoreT200 Evaluation software V2.0. The affinity of Gal3 monoclonal antibodies was confirmed to be […] 30 nM for all antibodies studied (Table 24.1). Antibodies with affinity less than 2E-7 were selected for further characterization.

[5] = target: T1, association of GAL3 and TIM3 (Homo sapiens, UniProt P17931); test: GAL3-TIM3 blocking ELISA (Examples 24, 27); assay type: binding; settings: for GAL3-TIM3 Blocking @ 3 ug/mL: 3 ug/mL antibody
T1 construct: full-length human Galectin-3 protein (Acro Biosystems, GA3-H5129); linker-spaced 6-histidine tag; purchased Acro Biosystems GA3-H5129 (Gal3); TM3-H5229 (TIM-3)
Method: Positively scoring wells were evaluated for the ability to block association of GAL3 and TIM3. To identify GAL3-targeted antibodies with the ability to block the interaction of GAL3 and TIM3, purified GAL3 and TIM3 proteins were incubated in the presence of GAL3-immunization hybridoma supernatants described above, or without antibody, and protein interaction was evaluated by ELISA. Human Galectin-3 protein (Acro Biosystems, GA3-H5129) was diluted in PBS (Corning, 21-030-CM) to a concentration of 3 μg/ml and added to the wells of a 96-well ELISA plate (Thermo Fisher, 44-2404-21). After incubating the plate at 4° C. overnight, the plate was washed three times with PBST (PBS with 0.05% Tween 20 [VWR, 0777]). The plate was then blocked for an hour with 2% BSA (EMD Millipore, 126609) in PBST at room temperature with gentle rocking. Thereafter, the 2% BSA in PBST was discarded and antibody or inhibitor (3-fold dilutions beginning at 20 μg/ml, 60 μg/ml, or 180 μM) in 2% BSA in PBST was added to the wells. Afterwards, 2 μg/ml of human TIM3 (Aero Biosystems, TM3-H5229) in 2% BSA in PBST was added to the antibody or inhibitor in the wells in a 1:1 ratio. The plate was incubated for an hour at room temperature with gentle rocking. Thereafter, the plate was washed three times with PBST, and 0.3 μg/ml of human TIM3 Biotinylated Antibody (R&D Systems, BAF2365) in 2% BSA in PBST was added to the wells. The plate was incubated for an hour with gentle rocking and then washed three times with PBST. Avidin-HRP (1:2000) was then added to the wells. The plate was incubated at room temperature for an hour with gentle rocking and then washed three times with PBST. TMB substrate (Thermo Scientific, 34029) was then added to each well. The reaction was stopped with 1M HCl (JT Baker, 5620-02) and read using a plate reader (Molecular Devices) at absorbance of 450 nm.

Sequence of human Gal3-His (P17931 whole entry): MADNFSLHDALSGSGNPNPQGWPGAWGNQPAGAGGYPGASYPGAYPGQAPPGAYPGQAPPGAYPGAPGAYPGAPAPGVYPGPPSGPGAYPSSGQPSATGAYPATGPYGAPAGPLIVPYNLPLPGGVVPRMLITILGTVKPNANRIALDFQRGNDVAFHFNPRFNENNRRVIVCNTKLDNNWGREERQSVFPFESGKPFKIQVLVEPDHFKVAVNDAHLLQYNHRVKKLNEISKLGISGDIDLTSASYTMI
Sequence of Galectin-3 (P17931 whole entry): as above
T1 sequence (P17931 2-250 limits assumed): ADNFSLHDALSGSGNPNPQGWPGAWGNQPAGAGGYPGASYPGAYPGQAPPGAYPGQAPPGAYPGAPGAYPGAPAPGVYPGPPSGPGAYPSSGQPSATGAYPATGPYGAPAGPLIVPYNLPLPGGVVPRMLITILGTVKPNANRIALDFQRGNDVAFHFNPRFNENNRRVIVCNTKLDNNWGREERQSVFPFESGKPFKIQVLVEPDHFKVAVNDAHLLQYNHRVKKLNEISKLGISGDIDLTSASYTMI

| Molecule | picosirius red staining of kidney, qualitative [1] | KIM-1 levels [1] | serum NGAL levels [1] | picosirius red staining of kidney, image quantification [1] | Bin [2] | Epitope Mapping [3] | Gal3 peptide bound [3] | Kd [4] | assembly of GAL3 and TIM3, % of levels observed in the absence of a GAL3-targeted antibody ([5]; 3 μg/mL (FIG. 24)) | GAL3-TIM3 Blocking @ 3 ug/mL [5] | IC50 ([5]; titration series, purified GAL3 and TIM3) |
| --- | --- | --- | --- | --- | --- | --- | --- | --- | --- | --- | --- |
| CN(C)C(=N)N=C(N)N [metformin, reference compound] | substantial reductions in picosirius red staining | the reduction was not statistically significant | significantly impact NGAL levels | 1.83% |  |  |  |  |  |  |  |
| B1 |  |  |  |  | 3 | 6 | peptide 6 | 10.2 nM | less than 5% | 100% |  |
| B2 |  |  |  |  | 3 | 6 | peptide 6 | 0.753 nM |  | 86% |  |
| B3 |  |  |  |  | 3 | 6 | peptide 6 | 5.22 nM |  | 48% |  |
| B4 |  |  |  |  |  |  | peptide 4; also recorded: peptide 6 | 8.2 nM |  | 35% |  |
| B5 | substantial reductions in picosirius red staining | significantly reduced | significant reductions in serum NGAL levels | 1.26% |  |  |  |  |  |  | 26.5 nM |
| B6 |  |  |  |  |  | Non-linear |  | 2.53 nM |  | 0% |  |
